Among the data in article PMC6488192 (2019) are ratio to parent values, retold here.

What all share (conditions): parent: 1; read off a plot
In assay [1] the target is GAP1, endogenous. Description: IgG pulldown of TAP-tagged REH2, western blot quantification. A general note: Immunoblotting shows a protein as a band on a membrane.
Assay [2] concerns the target RNA Editing Helicase 2 (REH2), endogenous (UniProt Q581T1). Description: IgG pulldown of TAP-tagged H2F1, western blot quantification.
For assay [3], the target named is GAP1, endogenous. Described as above.
For assay [4], the target named is REH2-Associated Factor 1 (^H2F1), endogenous (UniProt Q585P3). The description is as above.
The target in the next assay is REL1 ligase, endogenous (UniProt P86927). Description: IgG pulldown of TAP-tagged H2F1, self-adenylation reaction quantification.

Chain of ^H2F1 wild type with TAP tag (from UniProt Q585P3) Z5 R/K>A (Q585P3 23-524, change not shown): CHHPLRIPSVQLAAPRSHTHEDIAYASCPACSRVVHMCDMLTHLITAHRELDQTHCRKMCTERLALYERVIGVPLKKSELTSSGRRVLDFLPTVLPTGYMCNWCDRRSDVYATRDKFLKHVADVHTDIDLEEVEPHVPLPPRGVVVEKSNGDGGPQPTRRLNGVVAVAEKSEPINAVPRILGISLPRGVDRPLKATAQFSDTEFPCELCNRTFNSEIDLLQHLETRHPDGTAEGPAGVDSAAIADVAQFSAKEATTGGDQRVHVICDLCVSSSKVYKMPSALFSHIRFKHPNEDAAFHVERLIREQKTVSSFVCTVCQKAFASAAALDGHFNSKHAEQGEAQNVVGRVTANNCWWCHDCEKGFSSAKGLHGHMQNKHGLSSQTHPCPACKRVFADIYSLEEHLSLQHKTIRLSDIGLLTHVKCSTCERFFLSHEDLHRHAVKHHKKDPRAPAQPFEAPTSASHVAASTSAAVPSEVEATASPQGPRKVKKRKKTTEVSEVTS
Chain of REH2-Associated Factor 1 (^H2F1), endogenous (Q585P3 23-524): as the sequence (Q585P3 23-524, change not shown) above
Chain of ^H2F1 wild type with TAP tag (from UniProt Q585P3) Z3 R/K>A (Q585P3 23-524, change not shown): as above
Chain of ^H2F1 wild type with TAP tag (from UniProt Q585P3) Z1 R/K>A (Q585P3 23-524, change not shown): as above
Chain of ^H2F1 wild type with TAP tag (from UniProt Q585P3) Z2 R/K>A (Q585P3 23-524, change not shown): as above

In the case of “RNA Editing Helicase 2 (REH2) wild type with TAP tag (from UniProt Q581T1) H1998E”, the ratio to parent in the assay with GAP1, endogenous [1] is 0.52.
Take “^H2F1 wild type with TAP tag (from UniProt Q585P3) Z2 R/K>A”: the ratio to parent came to 0.78 in assay [2]; 0.95 with GAP1, endogenous [3]; 0.83 in assay [4]; 0.83 with REL1 ligase, endogenous.
Consider “^H2F1 wild type with TAP tag (from UniProt Q585P3) Z3 R/K>A”, for which the ratio to parent in assay [2] amounted to 0.85; with GAP1, endogenous [3], 1; in assay [4], 1.2; with REL1 ligase, endogenous, 0.62.
As for “^H2F1 wild type with TAP tag (from UniProt Q585P3) Z1 R/K>A”, the ratio to parent amounted to 0.75 in assay [2]; 0.85 with GAP1, endogenous [3]; 0.87 in assay [4]; 0.72 with REL1 ligase, endogenous.
With “RNA Editing Helicase 2 (REH2) wild type with TAP tag (from UniProt Q581T1) R2023A”, the ratio to parent with GAP1, endogenous [1] was 0.66.
Take “RNA Editing Helicase 2 (REH2) wild type with TAP tag (from UniProt Q581T1) K1078A; A1086D”: in the assay with GAP1, endogenous [1], the ratio to parent amounted to 0.17.
Regarding “RNA Editing Helicase 2 (REH2) wild type with TAP tag (from UniProt Q581T1) R1979A”, the ratio to parent with GAP1, endogenous [1] was 1.
As for “^H2F1 wild type with TAP tag (from UniProt Q585P3) Z5 R/K>A”, the ratio to parent in assay [2] was 0.97; in the assay with GAP1, endogenous [3], 0.99; in assay [4], 1; with REL1 ligase, endogenous, 0.77.
